Patent US20250222146A1, “Radiopharmaceuticals Targeting Somatostatin Receptor 2 and Uses Thereof” (RayzeBio, Inc., priority 2023, published 2025)
Square brackets hold non-standard residues; d marks the D form. Peptide text beside a SMILES is read from it. * marks the point of attachment. DOTA(Lu)NH(CH2)6NHCOCH2 = O=C(CN1CCN2CCN3CCN(CC1)CC(=O)[O][Lu]([O]C(=O)C2)[O]C(=O)C3)NCCCCCCNC(=O)C*; dTrp(βS-Me) = C[C@@H](c1c[nH]c2ccccc12)[C@@H](N)C(=O)O; Ala(piperazin-1-yl) = N[C@@H](CN1CCNCC1)C(=O)O; NMehCys = CN[C@@H](CCS)C(=O)O; NMeK = CN[C@@H](CCCCN)C(=O)O; X1 = C1NCC1*

B1: RB-0006176 (peptide)
peptide: cyclo([NMeK]Y[dTrp(βS-Me)][Ala(piperazin-1-yl)]TF)
modifications: not fully specified (residue 1); printed as cyclo[NMe-Lys(DOTA-Lu),Tyr,(S-βMe)D-Trp,PipzaA,Thr,Phe]; also: Lu chelated in DOTA

Assays:
[1] = Peptide conjugate biodistribution measured by tissue PK (ICP-MS, % ID/g in kidney tissue at 2 h); assay type: in vivo; details: 2 h time point, mouse
Experimental: Macrocyclic peptides and conjugates described herein were tested for tissue distribution by measuring concentrations in tissues by MS using in vivo animal models. Peptide metal chelates were dosed to animals and tissues were collected at specific time points based off the peptide PK profile. The samples were then analyzed by MS and the results reported as % ID/g (% injected dose/gram). Radiopharmaceutical conjugates of the present disclosure have improved tissue distribution for radiopharmaceutical therapeutics.
Peptide metal chelate doses were suspended in phosphate-buffered saline (PBS) containing 0.1% Tween 80. An injection volume of 100 μL per mouse was used, and blood and tissue samples were collected, weighed, and stored frozen at-80° C. until analysis. Tissue samples were digested with concentrated nitric acid in a microwave digestion apparatus. The sample digest was diluted with internal standard and analyzed using inductively coupled plasma mass spectrometry (ICP-MS). ICP-MS is an elemental analysis technique used to measure elements by using argon plasma to convert the sample into ions that are then measured using the mass spectrometer. Calibration standards were used for quantification of element(s) of interest by constructing a multipoint standard curve covering the range of analyte concentrations anticipated in the samples (typical range is 500 ppt to 0.1 ppt). A single quadrupole instrument (iCAP RQ, Thermo Fisher) ICP-MS was coupled with a Teledyne CETAC autosampler and used for the sample analysis.
The % ID/g of conjugate in kidney tissue at the 2-hour time point (2 h) was quantified for various conjugates, and the results are shown in Table 10. Lower kidney tissue % ID/g values indicate lower distribution to the kidney after administration of the conjugate.

[2] = target: SSTR2 (Homo sapiens, UniProt P30874); assay: SSTR binding affinity by radioligand binding competition assay ([125I]-Tyr11-Somatostatin, membrane extracts); details: radioligand competition, [125I]-Tyr11-Somatostatin 0.1 nM, membrane extracts; Ki from IC50 by Cheng Prusoff; read-out: SSTR2 Ki
SSTR2, sequence (P30874 whole entry): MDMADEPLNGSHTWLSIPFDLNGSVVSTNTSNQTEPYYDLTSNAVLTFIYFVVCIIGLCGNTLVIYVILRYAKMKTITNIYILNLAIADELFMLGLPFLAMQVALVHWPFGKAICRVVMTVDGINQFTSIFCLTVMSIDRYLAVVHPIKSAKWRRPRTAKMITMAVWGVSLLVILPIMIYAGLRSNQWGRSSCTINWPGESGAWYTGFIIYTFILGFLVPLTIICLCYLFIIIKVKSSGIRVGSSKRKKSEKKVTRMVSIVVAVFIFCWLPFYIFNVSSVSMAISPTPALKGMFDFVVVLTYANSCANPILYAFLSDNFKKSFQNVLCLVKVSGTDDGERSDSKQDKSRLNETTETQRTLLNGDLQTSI

[3] = target: T1, somatostatin receptor type 2 (SSTR2) (UniProt P30874 1-369, limits assumed); assay: radioligand competition; Ki bin per legend
T1 construct: also called SSTR protein
T1 sequence (P30874 whole entry): as above

| Molecule | tissue uptake at 2 h [1] [%ID/g] | Ki [2] [nM] | Ki [3] [nM] |
| --- | --- | --- | --- |
| C[C@@H](O)[C@@H]1NC(=O)[C@H](COC2CNC2)NC(=O)[C@@H](Cc2c[nH]c3ccccc23)NC(=O)[C@H](Cc2ccc(O)cc2)NC(=O)[C@H](CCSCC(=O)NCCCCCCNC(=O)CN2CCN3CCN4CCN(CC2)CC(=O)[O][Lu]([O]C(=O)C3)[O]C(=O)C4)N(C)C(=O)[C@H](Cc2ccccc2)NC1=O [RB-0006013] (cyclo(F[NMehCys](DOTA(Lu)NH(CH2)6NHCOCH2)Y[dW]S(X1)T)) | 3 | 1 to 3.33 |  |
| C[C@@H](O)[C@@H]1NC(=O)[C@H](CN2CCNCC2)NC(=O)[C@@H]([C@@H](C)c2c[nH]c3ccccc23)NC(=O)[C@H](Cc2ccc(O)cc2)NC(=O)[C@H](CCSCC(=O)NCCCCCCNC(=O)CN2CCN3CCN4CCN(CC2)CC(=O)[O][Lu]([O]C(=O)C3)[O]C(=O)C4)N(C)C(=O)[C@H](Cc2ccccc2)NC1=O [RB-0006072] (cyclo(F[NMehCys](DOTA(Lu)NH(CH2)6NHCOCH2)Y[dTrp(βS-Me)][Ala(piperazin-1-yl)]T)) | 2.7 | < 1 |  |
| B1 |  |  | < 1 |
| XYWKVF (cyclo[NMe-Hcy(COCH2-Dah-DOTA-Lu);Tyr;D-Trp;Lys;Val;Phe]) [RB-0002676] |  |  | < 1 |
| XYWKTF (cyclo[NMe-Hcy(COCH2-Dah-DOTA-Lu);Tyr;D-Trp;NMe-Lys;Thr;Phe]) [RB-0003453] |  |  | < 1 |
